Results: US6579848B1, “Depigmenting activity of agouti signal protein and peptides thereof” (The United States of America as represented by the …, priority 1995, dated 2003)

B1: agouti protein: Recombinant murine agouti signal protein purified from a baculovirus expression system (protein)
chain: MDVTRLLLATLVSFLCFFTVHSHLALEETLGDDRSLRSDSSMNSLDFSSVSIVALNKKSKKISRKEAEKRKRSSKKKASMKKVARPPPPSPCVATRDSCKPPAPACCDPCASCQCRFFGSACTCRVLNPNC

Experiments:
tyrosinase = assay: Tyrosine hydroxylase enzyme assay on extracts of treated melan-a cells; assay type: cell-based, murine; conditions: extracts of melan-a cells cultured 5 days; 10 nM
Procedure: Assays for melanogenic catalytic activities as described below were carried out at pH 6.8, 37° C. for 60 minutes. (1) Tyrosine hydroxylase activity was measured using the [^3H]tyrosine assay (Hearing and Ekel, 1976; Hearing, 1987). This method specifically measures the tritiated water produced during the hydroxylation of tyrosine to DOPA. (2) DOPA oxidase activity was measured using incorporation of [3-^14C]DOPA into acid-insoluble melanin as detailed previously (Aroca et al., 1993). (3) DOPAchrome tautomerase activity was measured by HPLC as the disappearance of DOPAchrome substrate and the production of DHICA rather than DHI; data are converted to pmol products by comparison with known standards. The HPLC assay was detailed previously (Palumbo et al., 1987; Tsukamoto et al., 1992). (4) DHI oxidase and DHICA oxidase activities were measured by HPLC as the disappearance of these substrates from reaction mixtures compared to controls for spontaneous auto-oxidation; data are converted to pmol by comparison with known standard (Aroca et al., 1993). (5) Melanin production was measured using incorporation of [^14C]tyrosine into acid-insoluble melanin, also as detailed previously (Hearing and Ekel, 1976; Hearing, 1987); pmol melanin produced are calculated from the radioactive product. […]

TRP2 = assay: Northern blotting of TRP2 RNA in melan-a cells; assay type: cell-based, murine
Procedure: These techniques were performed as described previously (Aroca et al., 1993). Briefly, 2.0 μg of mRNA, isolated using a total RNA isolation kit and mRNA purification kit (Promega, Madison, Wis.), were electrophoresed and then blotted to Sure-Blot nylon membranes (Oncor, Gaithersburg, Md.), hybridized with ^32P-labeled probes, dehybridized and rehybridized with other probes again as necessary. TYRS-J, the probe specific for tyrosinase, was kindly provided by Drs. H. Yamamoto and T. Takeuchi, Sendai, Japan and is described in Yamamoto et al Japan J. Genetics Vol 62:271-274, 1987. pMT4, specific for TRP1, was provided by Dr. S. Shibahara, Sendai, Japan and is described in Shibahara, S. et al Nucleic Acid Res. Vol 14:2413-2427, 1986. TRP2a, specific for TRP2 was provided by Dr. I. Jackson, Edinburgh, Scotland and is described in Jackson, I et al. EMBO Vol 11:527-535, 1992. gp100, specific for silver, was provided by Dr. Y. Kawakami, Bethesda, Md. and is described in Kawakami et al PNAS, Vol. 91, 6458-6462, 1994.
Recombinant agouti protein was purified from baculovirus system by Dr. Michael Ollmann in Dr. Gregory Barsh's laboratory by methods known in the art. 2×10^6 cells were seeded per 15 cm diameter dish. The medium was changed everyday, and fresh agouti protein and/or αMSH added everyday usually at 10 nM. To examine transcriptional regulation, total RNA was isolated and Northern blotting performed by methods described in Example 1. The A26 probe to the MSH-R was provided by Dr. R. Cone and is described in Mountjoy et al. Science 257:1248-1251, 1992. At the translational level, metabolic labeling was used in conjunction with immunoprecipitation as described in Example 1. Western blotting and enzyme assay was used to examine function.
The effects of agouti protein on expression of TRP1, TRP2, and the MSH receptor were examined.
Total RNA was extracted from cells using an RNeasy total RNA isolation kit (QIAGEN, Catsworth, Calif.), following the manufacturer's instructions. […]

Molecule	tyrosine hydroxylase (tyrosinase)	increase in TRP2 RNA level (TRP2; 10 nM, 5 days)	RNA level of TRP2 (TRP2; 10 nM, 5 days)	level of TRP2 RNA (TRP2; 24 hours, different concentrations)
α-melanocyte stimulating hormone [MSH, reference compound]	8.7 ± 2.8 pmol/μg protein/hr	50%	–	–
B1	−1.2 ± 0.2 pmol/μg protein/hr	–	nearly a fivefold decrease	reduced, but not to the same extent as tyrosinase RNA
